Assay results as given in patent US20240262904A1 (SHANGHAI MABGEEK BIOTECH, published 2024).

Key:
[1] = target: T1, TSLP-flag-Biotin (human, UniProt Q969D9 29-159, limits assumed, biotin label, site not stated); assay: competition ELISA by the method of Example 5: blocks TSLP-flag-Biotin binding to coated TSLPR-ECD-hFc
T1 construct: the labelling is not described; also called biotinylated TSLP-flag

[2] = target: T2, human TSLP antigen tagged with Flag (hTSLP-Flag) (human, UniProt Q969D9 29-159, limits assumed); assay: cell-based or functional assay
[3] = target: T2, human TSLP antigen tagged with Flag …; assay: SPR, Biacore T200, antibody captured on Protein A chip, hTSLP-Flag as analyte

IC50 [1] [µg/mL]	IC50 of inhibition of TSLP-dependent STAT5 activation (luciferase, IL-7R/TSLPR-BaF3-Luc (STAT5) cells, TSLP-flag stimulus) [2] [µg/mL]	Kd [3] [nM]	koff [3] [s⁻¹]	kon [3] [M⁻¹ s⁻¹]	Binder
0.167	0.184	–	–	–	humanized anti-human TSLP antibody 111H (antibody, human IgG1, kappa, V domains shown, Humanized, human IgG1 constant region; also called humanized antibody No. 111) VH: EVQLVESGGGLVQPGGSLRLSCSVSGFSLTYSGVNWVRQAPGKGLEWLGAIWGDGSTNYHSALISRLTISKDNSKSTVYLQMNSLRAEDTAVYYCAKPDGYSGIFAYWGQGTLVTVSS VL: EIVLTQSPGTLSLSPGERATLSCSASSSLSSNYLHWYQQKPGQAPRLLIYRTSNLASGVPDRFSGSGSGTDFTLTISRLEPEDFAVYYCQQGSGILVTFGQGTKLEIKR
0.185	–	–	–	–	humanized anti-human TSLP antibody 101H (antibody, human IgG1, kappa, V domains shown, Humanized, human IgG1 constant region; also called humanized antibody No. 101) VH: QVQLVQSGAEVKKPGASVKVSCKTSGYTFTKYWIQWVRQAPGQGLEWIGEIFPGTGTTYYNEIFKARVTLTVDTSTSTAYMELSSLRSEDTAVYYCARRGDYDVYYALDYWGQGTLVTVSS VL: EIVLTQSPATLSLSPGERATLSCSANSGVNYIHWYQQKPGQAPRFWIWTTSNLASGVPARFSGSGSGTDFTLTISSLEPEDFAVYYCQQRSSYPFTFGQGTKLEIKR
0.159	0.378	0.0513	0.000302	5.89e+06	humanized anti-human TSLP antibody 163H (antibody, human IgG1, kappa, V domains shown, Humanized, human IgG1 constant region) VH: EVQLVESGGGLVQPGGSLRLSCAASGFTFSSFGMHWVRQAPGKGLEWVSYISSGSSNIYYADTVKGRFTISRDNAKNSLYLQMNSLRAEDTAVYYCARDGGSRRHYYVMDYWGQGTLVTVSS VL: EIVLTQSPATLSLSPGERATLSCKASQDVSPAVAWYQQKPGQSPRLLIYSASYRYTGVPARFSGSGSGTDFTLTISSLEPEDFAVYYCQQHYSSPFTFGQGTKLEIKR
